Results published in EP1398371A1.

Legend:
human CD81 (human) = human CD81 (human) (UniProt P60033); assay: cell-based or functional assay
[1] = target: HCV E2 glycoprotein of genotype 1a (Hepatitis C virus genotype 1a) (UniProt P27958); assay: cell-based or functional assay

JS-81 anti-CD81 monoclonal antibody (Pharmingen)
inhibition of infection by HCVpp of genotypes 1a and 1b after pre-incubation of the target cells with antibody (30 µg/ml) (human CD81 (human)): > 90%

recombinant GST-fusion polypeptide encompassing the large extra-cellular loop (LEL) of human CD81 (from UniProt P60033 113-201)
inhibition of infectivity of HCVpp on Huh-7 cells (hCD81-LEL at 4, 8, 16 µg/ml pre-incubated with the particles) [1]: 38 to 54%
